Laboratory results from article PMC10540216, “Activity Guided Azide-methyllysine Photo-trapping for Substrate Profiling of Lysine Demethylases” (Journal of the American Chemical Society, 2023).

B1: SF3A3_HUMAN (protein, UniProt Q12874 1-501, looked up)
Splicing factor 3A subunit 3: METILEQQRRYHEEKERLMDVMAKEMLTKKSTLRDQINSDHRTRAMQDRYMEVSGNLRDLYDDKDGLRKEELNAISGPNEFAEFYNRLKQIKEFHRKHPNEICVPMSVEFEELLKARENPSEEAQNLVEFTDEEGYGRYLDLHDCYLKYINLKASEKLDYITYLSIFDQLFDIPKERKNAEYKRYLEMLLEYLQDYTDRVKPLQDQNELFGKIQAEFEKKWENGTFPGWPKETSSALTHAGAHLDLSAFSSWEELASLGLDRLKSALLALGLKCGGTLEERAQRLFSTKGKSLESLDTSLFAKNPKSKGTKRDTERNKDIAFLEAQIYEYVEILGEQRHLTHENVQRKQARTGEEREEEEEEQISESESEDEENEIIYNPKNLPLGWDGKPIPYWLYKLHGLNINYNCEICGNYTYRGPKAFQRHFAEWRHAHGMRCLGIPNTAHFANVTQIEDAVSLWAKLKLQKASERWQPDTEEEYEDSSGNVVNKKTYEDLKRQGLL
B2: TCPB_HUMAN (protein, UniProt P78371 2-535, looked up)
T-complex protein 1 subunit …: ASLSLAPVNIFKAGADEERAETARLTSFIGAIAIGDLVKSTLGPKGMDKILLSSGRDASLMVTNDGATILKNIGVDNPAAKVLVDMSRVQDDEVGDGTTSVTVLAAELLREAESLIAKKIHPQTIIAGWREATKAAREALLSSAVDHGSDEVKFRQDLMNIAGTTLSSKLLTHHKDHFTKLAVEAVLRLKGSGNLEAIHIIKKLGGSLADSYLDEGFLLDKKIGVNQPKRIENAKILIANTGMDTDKIKIFGSRVRVDSTAKVAEIEHAEKEKMKEKVERILKHGINCFINRQLIYNYPEQLFGAAGVMAIEHADFAGVERLALVTGGEIASTFDHPELVKLGSCKLIEEVMIGEDKLIHFSGVALGEACTIVLRGATQQILDEAERSLHDALCVLAQTVKDSRTVYGGGCSEMLMAHAVTQLANRTPGKEAVAMESYAKALRMLPTIIADNAGYDSADLVAQLRAAHSEGNTTAGLDMREGTIGDMAILGITESFQVKRQVLLSAAEAAEVILRVDNIIKAAPRKRVPDHHPC
B3: NUCB1_HUMAN (protein, UniProt Q02818 27-461, looked up)
Nucleobindin-1: VPLERGAPNKEETPATESPDTGLYYHRYLQEVIDVLETDGHFREKLQAANAEDIKSGKLSRELDFVSHHVRTKLDELKRQEVSRLRMLLKAKMDAEQDPNVQVDHLNLLKQFEHLDPQNQHTFEARDLELLIQTATRDLAQYDAAHHEEFKRYEMLKEHERRRYLESLGEEQRKEAERKLEEQQRRHREHPKVNVPGSQAQLKEVWEELDGLDPNRFNPKTFFILHDINSDGVLDEQELEALFTKELEKVYDPKNEEDDMREMEEERLRMREHVMKNVDTNQDRLVTLEEFLASTQRKEFGDTGEGWETVEMHPAYTEEELRRFEEELAAREAELNAKAQRLSQETEALGRSQGRLEAQKRELQQAVLHMEQRKQQQQQQQGHKAPAAHPEGQLKFHPDTDDVPVPAPAGDQKEVDTSEKKLLERLPEVEVPQHL
B4: CPSF7_HUMAN (protein, UniProt Q8N684 1-471, looked up)
Cleavage and polyadenylation …: MSEGVDLIDIYADEEFNQDPEFNNTDQIDLYDDVLTATSQPSDDRSSSTEPPPPVRQEPSPKPNNKTPAILYTYSGLRNRRAAVYVGSFSWWTTDQQLIQVIRSIGVYDVVELKFAENRANGQSKGYAEVVVASENSVHKLLELLPGKVLNGEKVDVRPATRQNLSQFEAQARKRECVRVPRGGIPPRAHSRDSSDSADGRATPSENLVPSSARVDKPPSVLPYFNRPPSALPLMGLPPPPIPPPPPLSSSFGVPPPPPGIHYQHLMPPPPRLPPHLAVPPPGAIPPALHLNPAFFPPPNATVGPPPDTYMKASAPYNHHGSRDSGPPPSTVSEAEFEDIMKRNRAISSSAISKAVSGASAGDYSDAIETLLTAIAVIKQSRVANDERCRVLISSLKDCLHGIEAKSYSVGASGSSSRKRHRSRERSPSRSRESSRRHRDLLHNEDRHDDYFQERNREHERHRDRERDRHH
B5: SYDC_HUMAN (protein, UniProt P14868 1-501, looked up)
Aspartate--tRNA ligase, …: MPSASASRKSQEKPREIMDAAEDYAKERYGISSMIQSQEKPDRVLVRVRDLTIQKADEVVWVRARVHTSRAKGKQCFLVLRQQQFNVQALVAVGDHASKQMVKFAANINKESIVDVEGVVRKVNQKIGSCTQQDVELHVQKIYVISLAEPRLPLQLDDAVRPEAEGEEEGRATVNQDTRLDNRVIDLRTSTSQAVFRLQSGICHLFRETLINKGFVEIQTPKIISAASEGGANVFTVSYFKNNAYLAQSPQLYKQMCICADFEKVFSIGPVFRAEDSNTHRHLTEFVGLDIEMAFNYHYHEVMEEIADTMVQIFKGLQERFQTEIQTVNKQFPCEPFKFLEPTLRLEYCEALAMLREAGVEMGDEDDLSTPNEKLLGHLVKEKYDTDFYILDKYPLAVRPFYTMPDPRNPKQSNSYDMFMRGEEILSGAQRIHDPQLLTERALHHGIDLEKIKAYIDSFRFGAPPHAGGGIGLERVTMLFLGLHNVRQTSMFPRDPKRLTP
B6: SF3B4_HUMAN (protein, UniProt Q15427 2-424, looked up)
Splicing factor 3B subunit 4: AAGPISERNQDATVYVGGLDEKVSEPLLWELFLQAGPVVNTHMPKDRVTGQHQGYGFVEFLSEEDADYAIKIMNMIKLYGKPIRVNKASAHNKNLDVGANIFIGNLDPEIDEKLLYDTFSAFGVILQTPKIMRDPDTGNSKGYAFINFASFDASDAAIEAMNGQYLCNRPITVSYAFKKDSKGERHGSAAERLLAAQNPLSQADRPHQLFADAPPPPSAPNPVVSSLGSGLPPPGMPPPGSFPPPVPPPGALPPGIPPAMPPPPMPPGAAGHGPPSAGTPGAGHPGHGHSHPHPFPPGGMPHPGMSQMQLAHHGPHGLGHPHAGPPGSGGQPPPRPPPGMPHPGPPPMGMPPRGPPFGSPMGHPGPMPPHGMRGPPPLMPPHGYTGPPRPPPYGYQRGPLPPPRPTPRPPVPPRGPLRGPLPQ
B7: CACP_HUMAN (protein, UniProt P43155 1-626, looked up)
Carnitine O-acetyltransferase: MLAFAARTVVKPLGFLKPFSLMKASSRFKAHQDALPRLPVPPLQQSLDHYLKALQPIVSEEEWAHTKQLVDEFQASGGVGERLQKGLERRARKTENWLSEWWLKTAYLQYRQPVVIYSSPGVMLPKQDFVDLQGQLRFAAKLIEGVLDFKVMIDNETLPVEYLGGKPLCMNQYYQILSSCRVPGPKQDTVSNFSKTKKPPTHITVVHNYQFFELDVYHSDGTPLTADQIFVQLEKIWNSSLQTNKEPVGILTSNHRNSWAKAYNTLIKDKVNRDSVRSIQKSIFTVCLDATMPRVSEDVYRSHVAGQMLHGGGSRLNSGNRWFDKTLQFIVAEDGSCGLVYEHAAAEGPPIVTLLDYVIEYTKKPELVRSPLVPLPMPKKLRFNITPEIKSDIEKAKQNLSIMIQDLDITVMVFHHFGKDFPKSEKLSPDAFIQMALQLAYYRIYGQACATYESASLRMFHLGRTDTIRSASMDSLTFVKAMDDSSVTEHQKVELLRKAVQAHRGYTDRAIRGEAFDRHLLGLKLQAIEDLVSMPDIFMDTSYAIAMHFHLSTSQVPAKTDCVMFFGPVVPDGYGVCYNPMEAHINFSLSAYNSCAETNAARLAHYLEKALLDMRALLQSHPRAKL
B8: SYFA_HUMAN (protein, UniProt Q9Y285 2-508, looked up)
Phenylalanine--tRNA ligase …: ADGQVAELLLRRLEASDGGLDSAELAAELGMEHQAVVGAVKSLQALGEVIEAELRSTKHWELTAEGEEIAREGSHEARVFRSIPPEGLAQSELMRLPSGKVGFSKAMSNKWIRVDKSAADGPRVFRVVDSMEDEVQRRLQLVRGGQAEKLGEKERSELRKRKLLAEVTLKTYWVSKGSAFSTSISKQETELSPEMISSGSWRDRPFKPYNFLAHGVLPDSGHLHPLLKVRSQFRQIFLEMGFTEMPTDNFIESSFWNFDALFQPQQHPARDQHDTFFLRDPAEALQLPMDYVQRVKRTHSQGGYGSQGYKYNWKLDEARKNLLRTHTTSASARALYRLAQKKPFTPVKYFSIDRVFRNETLDATHLAEFHQIEGVVADHGLTLGHLMGVLREFFTKLGITQLRFKPAYNPYTEPSMEVFSYHQGLKKWVEVGNSGVFRPEMLLPMGLPENVSVIAWGLSLERPTMIKYGINNIRELVGHKVNLQMVYDSPLCRLDAEPRPPPTQEAA
B9: HNRPR_HUMAN (protein, UniProt O43390 2-633, looked up)
Heterogeneous nuclear …: ANQVNGNAVQLKEEEEPMDTSSVTHTEHYKTLIEAGLPQKVAERLDEIFQTGLVAYVDLDERAIDALREFNEEGALSVLQQFKESDLSHVQNKSAFLCGVMKTYRQREKQGSKVQESTKGPDEAKIKALLERTGYTLDVTTGQRKYGGPPPDSVYSGVQPGIGTEVFVGKIPRDLYEDELVPLFEKAGPIWDLRLMMDPLSGQNRGYAFITFCGKEAAQEAVKLCDSYEIRPGKHLGVCISVANNRLFVGSIPKNKTKENILEEFSKVTEGLVDVILYHQPDDKKKNRGFCFLEYEDHKSAAQARRRLMSGKVKVWGNVVTVEWADPVEEPDPEVMAKVKVLFVRNLATTVTEEILEKSFSEFGKLERVKKLKDYAFVHFEDRGAAVKAMDEMNGKEIEGEEIEIVLAKPPDKKRKERQAARQASRSTAYEDYYYHPPPRMPPPIRGRGRGGGRGGYGYPPDYYGYEDYYDDYYGYDYHDYRGGYEDPYYGYDDGYAVRGRGGGRGGRGAPPPPRGRGAPPPRGRAGYSQRGAPLGPPRGSRGGRGGPAQQQRGRGSRGSRGNRGGNVGGKRKADGYNQPDSKRRQTNNQQNWGSQPIAQQPLQQGGDYSGNYGYNNDNQEFYQDTYGQQWK
B10: SYCM_HUMAN (protein, UniProt Q6PI48 48-645, looked up)
Aspartate--tRNA ligase, …: VVRTNTCGELRSSHLGQEVTLCGWIQYRRQNTFLVLRDFDGLVQVIIPQDESAASVKKILCEAPVESVVQVSGTVISRPAGQENPKMPTGEIEIKVKTAELLNACKKLPFEIKNFVKKTEALRLQYRYLDLRSFQMQYNLRLRSQMVMKMREYLCNLHGFVDIETPTLFKRTPGGAKEFLVPSREPGKFYSLPQSPQQFKQLLMVGGLDRYFQVARCYRDEGSRPDRQPEFTQIDIEMSFVDQTGIQSLIEGLLQYSWPNDKDPVVVPFPTMTFAEVLATYGTDKPDTRFGMKIIDISDVFRNTEIGFLQDALSKPHGTVKAICIPEGAKYLKRKDIESIRNFAADHFNQEILPVFLNANRNWNSPVANFIMESQRLELIRLMETQEEDVVLLTAGEHNKACSLLGKLRLECADLLETRGVVLRDPTLFSFLWVVDFPLFLPKEENPRELESAHHPFTAPHPSDIHLLYTEPKKARSQHYDLVLNGNEIGGGSIRIHNAELQRYILATLLKEDVKMLSHLLQALDYGAPPHGGIALGLDRLICLVTGSPSIRDVIAFPKSFRGHDLMSNTPDSVPPEELKPYHIRVSKPTDSKAERAH

These molecules were tested on KDM4A-I71AzF (assay: CASI: photo-crosslinking with HEK293T cell extracts, StrepTactin enrichment and LC-MS/MS proteomics). Details: sheet "Final results but with 0.01".
Assay type: binding, human
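Further: lysates from HEK293T cells pretreated with a KDM4 inhibitor to raise proteome methylation, affinity-purified after ±UV, gel-resolved, trypsin-digested, with exclusive unique peptides per protein averaged per condition.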

Point of comparison: B8, “Fold change (+UV/-UV)” value 4. Against it:
- B1 — lower, 2
- B2 — lower, 1
- B3 — lower, 3
- B4 — lower, 1
- B5 — lower, 2
- B6 — lower, 0.75
- B7 — lower, 0
- B9 — lower, 2
- B10 — lower, 1
